According to patent US20260308269 (published 2026):
Substitutions are numbered along the chain they refer to.

T1: human TfR apical domain (human)
T1 chain: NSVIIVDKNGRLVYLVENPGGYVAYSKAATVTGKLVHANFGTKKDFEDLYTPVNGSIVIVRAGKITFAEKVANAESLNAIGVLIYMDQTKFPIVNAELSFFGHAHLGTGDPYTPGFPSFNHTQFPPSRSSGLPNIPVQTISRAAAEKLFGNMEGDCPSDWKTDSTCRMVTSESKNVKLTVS

T2: human CD98hc (human)
T2 chain: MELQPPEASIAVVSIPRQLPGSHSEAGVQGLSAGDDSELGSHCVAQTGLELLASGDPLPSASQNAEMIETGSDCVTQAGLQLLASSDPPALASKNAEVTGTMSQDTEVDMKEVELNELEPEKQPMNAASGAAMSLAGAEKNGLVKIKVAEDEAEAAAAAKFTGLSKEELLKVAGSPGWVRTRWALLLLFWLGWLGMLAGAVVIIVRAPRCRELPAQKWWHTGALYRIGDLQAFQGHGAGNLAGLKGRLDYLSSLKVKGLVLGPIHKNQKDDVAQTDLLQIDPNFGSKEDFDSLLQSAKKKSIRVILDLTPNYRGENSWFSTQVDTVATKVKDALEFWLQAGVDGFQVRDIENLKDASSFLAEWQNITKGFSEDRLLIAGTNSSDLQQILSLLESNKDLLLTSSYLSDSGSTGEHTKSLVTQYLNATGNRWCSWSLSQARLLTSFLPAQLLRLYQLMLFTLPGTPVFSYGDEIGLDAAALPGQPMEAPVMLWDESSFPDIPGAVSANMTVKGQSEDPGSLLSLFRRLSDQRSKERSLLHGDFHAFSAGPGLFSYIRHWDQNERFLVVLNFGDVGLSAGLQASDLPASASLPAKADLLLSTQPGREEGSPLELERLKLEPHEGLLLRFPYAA

B1: 42.8.143 (protein)
chain: APELLGGPSVFLFPPKPKDTLMISRTPEVTCVVVDVSHEDPEVKFNWYVDGVEVHNAKTKPREEQYNSTYRVVSVLTVLHQDWLNGKEYKCKVSNKALPAPIEKTISKAKGQPREPQVYTLPPSRDELTKNQVSLTCLVKGFYPSDIAVEWFYGDSKLTNYKTTPPVLDSDGSFFLYSKLTVDKSRWQQGNLFACEVMHEALHNHYTYKLLSLSPGK
B2: 6.5.11.5.42.2 (TV42.2) (protein)
chain: B1 chain with Y153S, G154D, D155G, L158E
B3: CH3C.35.23.2 (protein)
chain: PCPAPELLGGPSVFLFPPKPKDTLMISRTPEVTCVVVDVSHEDPEVKFNWYVDGVEVHNAKTKPREEQYNSTYRVVSVLTVLHQDWLNGKEYKCKVSNKALPAPIEKTISKAKGQPREPQVYTLPPSRDELTKNQVSLWCLVKGFYPSDIAVEWESYGTEWANYKTTPPVLDSDGSFFLYSKLTVTKEEWQQGFVFSCSVMHEALHNHYTQKSLSLSPGK
B4: CH3C.35.23.4 (protein)
chain: B3 chain with A162S, T186S
B5: TV35.d1.10 (protein)
chain: B3 chain with L7A, L8A, P102G, A162V, E188S
B6: TV35.d1.9 (protein)
chain: B3 chain with L7A, L8A, P102G, A162T, E188S
B7: LLB2-10-8-d6 (protein)
chain: APELLGGPSVFLFPPKPKDTLMISRTPEVTCVVVDVSHEDPEVKFNWYVDGVEVHNAKTKPREEQYNSTYRVVSVLTVLHQDWLNGKEYKCKVSNKALPAPIEKTISKAKGQPREPQVYTLPPSRDELTKNQVSLTCLVKGFYPSDIAVLWNSRFVLENNYKTTPPVLDSDGSFFLYSKLTVDKSRWQQGNVFACNVYHEALHNHYTFKNLALSPGK
B8: LLB2-37 (protein)
chain: B7 chain with R154Q, V156H, V192I, A212L
B9: LLB2.10.8.10.3 (protein)
chain: B7 chain with N191E, V192I, A212R
B10: LLB2-10-8-d12 (protein)
chain: B7 chain with R154H, F155Y, V156E
B11: LLB2-10-8 (protein)
chain: B7 chain with N191E, V192I
B12: LLB2-10-8.d28 (protein)
chain: B7 chain with N152S, F155Y
B13: LLB2.10.8.14.3 (protein)
chain: B7 chain with N191E, V192I, Y206R, A212R
B14: LLB1-3-16 (protein)
chain: APELLGGPSVFLFPPKPKDTLMISRTPEVTCVVVDVSHEDPEVKFNWYVDGVEVHNAKTKPREEQYNSTYRVVSVLTVLHQDWLNGKEYKCKVSNKALPAPIEKTISKAKGQPREPQVYTLPPSRDELTKNQVSLTCLVKGFYPSDIAVEWRTYKPYETNYKTTPPVLDSDGSFFLYSKLTVDKSRWQQGDIFVCDVLHEALHNHFTIKKLSLSPGK
B15: LLB1-3-16-2 (protein)
chain: B14 chain with L198M
B16: 42.2.3-1H (protein)
chain: B1 chain with D155N, S156A, L158E
B17: 42.8.196 (protein)
chain: B1 chain with G154E, D155A, S156Q, T159N
B18: 42.8.15 (protein)
chain: B1 chain with Y153S, D155A, S156Q, L158E, T159S
B19: 6.5.11.5.42.1 (protein)
chain: B1 chain with Y153S, D155G, S156A, L158E
B20: 42.8.80 (protein)
chain: B1 chain with Y153S, G154E, D155G, L158E
B21: 42.2.19 (protein)
chain: B1 chain with G154D, Q189P, G190R, N191G, S212G, L213E
B22: 42.8.17 (protein)
chain: B1 chain with Y153S, D155A, S156Q
B23: 35.d1.16 (protein)
chain: ASTKGPSVFPLAPSSKSTSGGTAALGCLVKDYFPEPVTVSWNSGALTSGVHTFPAVLQSSGLYSLSSVVTVPSSSLGTQTYICNVNHKPSNTKVDKKVEPKSCDKTHTCPPCPAPELLGGPSVFLFPPKPKDTLMISRTPEVTCVVVDVSHEDPEVKFNWYVDGVEVHNAKTKPREEQYNSTYRVVSVLTVLHQDWLNGKEYKCKVSNKALPAPIEKTISKAKGQPREPQVYTLPPSRDELTKNQVSLTCLVKGFYPSDIAVEWESFGNEWSNYKTTPPVLDSDGSFFLYSKLTVSKSEWQQGFVFSCSVMHEALHNHYTQKSLSLSPELQLEESCAEAQDGELDGLWTT

Target: T1, human TfR apical domain
Assay: SPR

| Kd [nM] | Binder |
| --- | --- |
| 450 | B1 |
| 650 | B2 |
| 100 | B3 |
| 620 | B4 |
| 2500 | B5 |
| 8000 | B6 |

Target: T2, human CD98hc
Assay: SPR

| Kd [nM] | Binder |
| --- | --- |
| 550 | B7 |
| 610 | B8 |
| 43 | B9 |
| 2100 | B10 |
| 170 | B11 |
| 4200 | B12 |
| 20 | B13 |
| 32 | B14 |
| 175 | B15 |

Target: T1, human TfR apical domain
Assay: SPR
Remark: another data set of the same source

| Kd [nM] | Binder |
| --- | --- |
| 220 | B16 |
| 924 | B17 |
| 5960 | B18 |
| 840 | B19 |
| 2380 | B20 |
| 80 | B21 |
| 650 | B2 |
| 10400 | B22 |

Target: T1, human TfR apical domain
Assay: SPR
Remark: another data set of the same source

| Kd [nM] | Binder |
| --- | --- |
| 35600 | B23 |
| 2500 | B5 |
| 8400 | B6 |
